From patent publication US20260258125A1 (NONA BIOSCIENCES SUZHOU, published 2026)

T1: human CEACAM6 on 293T cells (293T-huCEACAM6 cells) (human, UniProt P40199 35-320)
T1 sequence (looked up): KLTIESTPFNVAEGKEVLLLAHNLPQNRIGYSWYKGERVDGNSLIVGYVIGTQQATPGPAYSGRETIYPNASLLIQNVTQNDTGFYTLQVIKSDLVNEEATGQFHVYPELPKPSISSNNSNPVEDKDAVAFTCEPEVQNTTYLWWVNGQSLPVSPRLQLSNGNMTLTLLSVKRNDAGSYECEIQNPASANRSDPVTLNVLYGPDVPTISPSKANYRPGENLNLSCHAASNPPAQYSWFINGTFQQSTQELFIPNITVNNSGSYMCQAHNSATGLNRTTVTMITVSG

T2: human CEACAM5 on 293T cells (293T-huCEACAM5 cells) (human, UniProt P06731 35-685)
T2 sequence (looked up): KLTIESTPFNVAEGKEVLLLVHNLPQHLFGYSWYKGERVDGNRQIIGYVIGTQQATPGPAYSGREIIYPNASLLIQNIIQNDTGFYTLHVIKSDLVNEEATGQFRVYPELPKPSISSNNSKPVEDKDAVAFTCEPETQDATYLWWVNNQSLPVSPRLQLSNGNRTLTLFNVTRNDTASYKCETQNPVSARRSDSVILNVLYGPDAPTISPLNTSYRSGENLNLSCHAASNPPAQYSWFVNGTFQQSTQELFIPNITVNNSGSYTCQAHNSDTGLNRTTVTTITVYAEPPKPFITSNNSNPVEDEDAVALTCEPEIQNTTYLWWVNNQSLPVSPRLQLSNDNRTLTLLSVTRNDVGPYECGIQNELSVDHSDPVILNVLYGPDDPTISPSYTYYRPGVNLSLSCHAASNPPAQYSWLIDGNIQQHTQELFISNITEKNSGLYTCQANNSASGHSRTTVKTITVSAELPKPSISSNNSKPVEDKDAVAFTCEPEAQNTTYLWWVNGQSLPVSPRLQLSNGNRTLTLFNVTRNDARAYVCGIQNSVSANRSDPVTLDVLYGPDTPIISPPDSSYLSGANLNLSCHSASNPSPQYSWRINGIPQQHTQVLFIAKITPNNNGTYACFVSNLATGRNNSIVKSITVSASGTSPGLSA

T3: recombinant human CEACAM5 Fc-tag protein (human, UniProt P06731 35-685, limits assumed)
T3 construct: also called huCEACAM5 (Octet); huCEACAM5-Fc; not shown: Fc tag
T3 sequence (looked up): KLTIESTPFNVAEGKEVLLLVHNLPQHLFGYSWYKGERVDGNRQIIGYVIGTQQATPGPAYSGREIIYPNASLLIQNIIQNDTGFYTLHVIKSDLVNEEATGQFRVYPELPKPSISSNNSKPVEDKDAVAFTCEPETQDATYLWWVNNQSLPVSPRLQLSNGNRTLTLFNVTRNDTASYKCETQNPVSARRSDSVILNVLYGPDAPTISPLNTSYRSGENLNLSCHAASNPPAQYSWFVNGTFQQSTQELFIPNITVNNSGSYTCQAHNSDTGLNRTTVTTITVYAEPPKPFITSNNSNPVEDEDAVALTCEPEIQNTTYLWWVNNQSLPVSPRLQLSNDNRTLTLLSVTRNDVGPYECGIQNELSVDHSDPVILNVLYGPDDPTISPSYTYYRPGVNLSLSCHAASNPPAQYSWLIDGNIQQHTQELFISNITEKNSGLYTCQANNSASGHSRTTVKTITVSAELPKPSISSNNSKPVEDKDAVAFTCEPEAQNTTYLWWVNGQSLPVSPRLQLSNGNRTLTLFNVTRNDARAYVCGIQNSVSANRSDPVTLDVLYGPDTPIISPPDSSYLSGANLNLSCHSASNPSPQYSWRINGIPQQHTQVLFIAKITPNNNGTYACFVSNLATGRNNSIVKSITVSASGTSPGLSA

T4: recombinant human CEACAM6 Fc-tag protein (human, UniProt P40199 35-320, limits assumed)
T4 construct: also called huCEACAM6 (Octet); not shown: Fc tag
T4 sequence (looked up): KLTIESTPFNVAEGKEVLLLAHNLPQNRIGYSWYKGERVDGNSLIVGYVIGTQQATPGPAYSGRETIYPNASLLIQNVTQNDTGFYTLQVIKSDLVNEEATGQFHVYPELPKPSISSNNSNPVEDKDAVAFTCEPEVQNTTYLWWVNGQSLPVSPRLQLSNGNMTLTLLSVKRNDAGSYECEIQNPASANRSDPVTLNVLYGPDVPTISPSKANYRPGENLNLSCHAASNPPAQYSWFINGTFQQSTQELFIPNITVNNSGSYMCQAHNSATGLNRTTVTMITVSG

B1: PR304294 (antibody, human IgG1, kappa, V domains shown)
VH: EVQLLESGGGLVQPGGSLRLSCAASGFTFSSYAMSWVRQAPGKGLEWVSAISGTTYNTYYAGSVKGRFTISRDNSKNTLYLQMNSLRAEDTAVYYCAKGISVAGYYYYGMDVWGQGTTVTVSS
VL: EIVMTQSPATLSVSPGERATLSCRASQSVISNLAWYQQKPGQAPRLLIYGASTRATGIPARFSGSGSGTEFTLTISSLQSEDFAVYYCHQYNNWPLTFGGGTKVEIKR
notes: Recombinant full antibody
B2: PR304171 (antibody, human IgG1, kappa, V domains shown)
VH: not shown
VL: EIVMTQSPATLSVSPGERATLSCRASQNVISNLAWHQQKPGQAPRLLIYTTSTRATGIPARFSGSGSGTEFTLTISSLQSEDFAVYYCQQYNNWPLTFGGGTKVEIKR
notes: Recombinant full antibody

Key:
[1] = molecular target: T5, cynomolgus CEACAM5 on CHO-K1 cells (CHOK1-cyno CEACAM5 cells) (cynomolgus monkey); test: flow cytometry on CHOK1-cyno CEACAM5 cells
T5 construct: whole, on cells; also called CHOK1-cynoCECAM5
Experimental: (§1) Binding of recombinant anti-CEACAM5/6 dual-binding antibodies against human or cynomolgus CEACAM5 or CEACAM6 stable cells were detected by flow cytometry. […] Anti-CEACAM5/6 dual-binding antibodies were incubated with the stable cell lines. Anti-CEACAM5/6 dual-binding antibodies were serially diluted in staining buffer (PBS containing 2% FBS). 50 μL of diluted antibody solution was added to 50 μL of cell suspension containing 1-2×10⁵ cells and incubated at 4° C. for 1 hour. […] After 1-hour incubation at 4° C., cells were washed twice and run on a flow cytometer. […] The results were shown in FIGS. 8-10 and Tables 6 below.

[2] = molecular target: T1, human CEACAM6 on 293T cells …; test: cell-based or functional assay
[3] = molecular target: T2, human CEACAM5 on 293T cells …; test: cell-based or functional assay
[4] = molecular target: T3, recombinant human CEACAM5 Fc-tag protein; test: Octet (BLI), antibody on AHC sensor, antigen in solution
Experimental: (§2) Binding kinetics of recombinant anti-CEACAM5/6 antibodies to CEACAM5 and CEACAM6 were analyzed by Octet. In Octet analysis, recombinant human CEACAM5 Fc-tag protein (#Uniprot P06731) or CEACAM6 Fc-tag protein (Uniprot P40199) was serially diluted with 1×kinetic buffer (Fortebio). Anti-CEACAM5/6 dual-binding antibodies were diluted to 5 μg/mL. Then diluted antibodies, antigen and regeneration buffer (10 mM glycine pH 1.75) were added to 96-well plates (Greiner). Rate constants for association and dissociation were measured using AHC sensor (Fortebio). The sensor surface was regenerated after each binding experiment with regeneration buffer. The traces were processed using ForteBio Data Analysis Software (version 8.0, Pall ForteBio, CA, USA).

[5] = molecular target: T4, recombinant human CEACAM6 Fc-tag protein; test: as above
Experimental: as §2

[6] = molecular target: T1, human CEACAM6 on 293T cells …; test: flow cytometry on 293T-huCEACAM6 cells
Experimental: as §1

[7] = molecular target: T2, human CEACAM5 on 293T cells …; test: flow cytometry on 293T-huCEACAM5 cells
Experimental: as §1

Row | Binder | EC50 [1] [nM] | Internalization of pHAb-dye-labelled antibody, MFI (37° C.-4° C.)/DAR [2] | Internalization of pHAb-dye-labelled antibody, MFI (37° C.-4° C.)/DAR [3] | Kd [4] [nM] | Kd [5] [nM] | EC50 [6] [nM] | EC50 [7] [nM]
1 | B1 | 2.51 | 14700 | 11300 | 5.48 | 19.9 | 1.32 | 1.26
2 | B2 | 14.9 |  |  |  |  | 10.6 | 3.64
